One test deals with T1, FcγRIIa H (human, UniProt P12318 34-217).
T1 construct: extracellular domain; Soluble extracellular domain with C-terminal His tag, expressed in FreeStyle293 cells; also called FcgRIIa H; 2aH; not shown: C-terminal His tag
T1 sequence (looked up): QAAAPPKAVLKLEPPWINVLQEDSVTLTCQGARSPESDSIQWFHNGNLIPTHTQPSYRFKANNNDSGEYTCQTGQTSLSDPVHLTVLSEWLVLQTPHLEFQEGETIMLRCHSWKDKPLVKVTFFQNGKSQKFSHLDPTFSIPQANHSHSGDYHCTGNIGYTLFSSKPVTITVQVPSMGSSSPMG
Briefly: SPR (Biacore), antibody captured, FcγR as analyte; relative to HeCon Ab. How it is done: (§1) The heterodimerized antibodies He Abs in which one of the H chains was introduced with an alteration were assayed for their binding activities to each activating FcγR and inhibitory FcγR according to the method described in Example 4. […] The activating FcγRs in FIGS. 26, 27, 28, and 29 are FcγRIa, FcγRIIa (R), FcγRIIa (H), and FcγRIIIa, respectively.
(§2) Analysis of interaction between objective antibody and the FcγR was carried out using Biacore T100 (GE Healthcare). HBS-EP+ (GE Healthcare) was used as the running buffer, and the measurement temperature was set to 25° C. Chips produced by immobilizing the antigen peptide by the amine coupling method to a Series S Sencor Chip CM5 (GE Healthcare), or alternatively, chips produced by allowing preliminarily biotinylated antigen peptides to interact with and immobilize onto a Series S Sensor Chip SA (certified) (GE Healthcare) were used. Antibodies of interest were captured onto an antigen peptide-immobilized chip, and allowed to interact to each FcγR diluted with running buffer. To regenerate and repeatedly use the chip, the antibodies captured on the chip were washed off by reacting 10 mM glycine-HCl, pH 1.5.

Another test concerns the target T2, FcγRIIb (human, UniProt P31994 43-217).
T2 construct: extracellular domain; Soluble extracellular domain with C-terminal His tag, expressed in FreeStyle293 cells; also called FcgRIIb; 2b; not shown: C-terminal His tag
T2 sequence (looked up): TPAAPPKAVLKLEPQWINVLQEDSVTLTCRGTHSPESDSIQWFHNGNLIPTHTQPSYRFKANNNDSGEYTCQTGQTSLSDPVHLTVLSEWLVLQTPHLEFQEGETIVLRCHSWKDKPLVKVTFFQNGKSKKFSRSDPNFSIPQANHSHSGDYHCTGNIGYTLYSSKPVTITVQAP
The description is as above. On the procedure: as §1, §2

B1: GpH7-A5/GpH7-B3 variant S267_07I/GpL16-k0 (antibody, human IgG1, kappa)
heavy 1: not shown
heavy 2: not shown
light: DIVMTQSPLSLPVTPGEPASISCQASESLVHSNRNTYLHWYLQKPGQSPQLLIYKVSNRFSGVPDRFSGSGSGTDFTLKISRVEAEDVGVYYCSQNTHVPPTFGQGTKVEIERTVAAPSVFIFPPSDEQLKSGTASVVCLLNNFYPREAKVQWKVDNALQSGNSQESVTEQDSKDSTYSLSSTLTLSKADYEKHKVYACEVTHQGLSSPVTKSFNRGEC
notes: Heterodimerized anti-glypican-3 IgG1; alteration in the GpH7-B3 chain only; also called He Ab
On to B1, for which, in the test with FcγRIIa H, the He/Con_2aH is 34.7 % of GpH7-A5/GpH7-B3/GpL16-k0 (=100). The He/Con_2b in the test with FcγRIIb is 192 % of GpH7-A5/GpH7-B3/GpL16-k0 (=100).

B2: GpH7-A5/GpH7-B3 variant P238_07I/GpL16-k0 (antibody, human IgG1, kappa)
heavy 1: not shown
heavy 2: not shown
light: DIVMTQSPLSLPVTPGEPASISCQASESLVHSNRNTYLHWYLQKPGQSPQLLIYKVSNRFSGVPDRFSGSGSGTDFTLKISRVEAEDVGVYYCSQNTHVPPTFGQGTKVEIERTVAAPSVFIFPPSDEQLKSGTASVVCLLNNFYPREAKVQWKVDNALQSGNSQESVTEQDSKDSTYSLSSTLTLSKADYEKHKVYACEVTHQGLSSPVTKSFNRGEC
notes: as for B1
As for B2, the He/Con_2aH in the test with FcγRIIa H was 57.6 % of GpH7-A5/GpH7-B3/GpL16-k0 (=100). In addition, the He/Con_2b in the test with FcγRIIb is 80 % of GpH7-A5/GpH7-B3/GpL16-k0 (=100).

B3: GpH7-A5/GpH7-B3 variant S239_06M/GpL16-k0 (antibody, human IgG1, kappa)
heavy 1: not shown
heavy 2: not shown
light: DIVMTQSPLSLPVTPGEPASISCQASESLVHSNRNTYLHWYLQKPGQSPQLLIYKVSNRFSGVPDRFSGSGSGTDFTLKISRVEAEDVGVYYCSQNTHVPPTFGQGTKVEIERTVAAPSVFIFPPSDEQLKSGTASVVCLLNNFYPREAKVQWKVDNALQSGNSQESVTEQDSKDSTYSLSSTLTLSKADYEKHKVYACEVTHQGLSSPVTKSFNRGEC
notes: as for B1
On to B3, for which the He/Con_2aH in the test with FcγRIIa H was 98.6 % of GpH7-A5/GpH7-B3/GpL16-k0 (=100). In addition, the He/Con_2b with FcγRIIb is 101 % of GpH7-A5/GpH7-B3/GpL16-k0 (=100).

B4: GpH7-A5/GpH7-B3 variant S267_01G/GpL16-k0 (antibody, human IgG1, kappa)
heavy 1: not shown
heavy 2: not shown
light: DIVMTQSPLSLPVTPGEPASISCQASESLVHSNRNTYLHWYLQKPGQSPQLLIYKVSNRFSGVPDRFSGSGSGTDFTLKISRVEAEDVGVYYCSQNTHVPPTFGQGTKVEIERTVAAPSVFIFPPSDEQLKSGTASVVCLLNNFYPREAKVQWKVDNALQSGNSQESVTEQDSKDSTYSLSSTLTLSKADYEKHKVYACEVTHQGLSSPVTKSFNRGEC
notes: as for B1
As for B4, in the test with FcγRIIa H, the He/Con_2aH is 71.3 % of GpH7-A5/GpH7-B3/GpL16-k0 (=100). In addition, in the test with FcγRIIb, the He/Con_2b was 105 % of GpH7-A5/GpH7-B3/GpL16-k0 (=100).

B5: GpH7-A5/GpH7-B3 variant P238_08L/GpL16-k0 (antibody, human IgG1, kappa)
heavy 1: not shown
heavy 2: not shown
light: DIVMTQSPLSLPVTPGEPASISCQASESLVHSNRNTYLHWYLQKPGQSPQLLIYKVSNRFSGVPDRFSGSGSGTDFTLKISRVEAEDVGVYYCSQNTHVPPTFGQGTKVEIERTVAAPSVFIFPPSDEQLKSGTASVVCLLNNFYPREAKVQWKVDNALQSGNSQESVTEQDSKDSTYSLSSTLTLSKADYEKHKVYACEVTHQGLSSPVTKSFNRGEC
notes: as for B1
With B5, the He/Con_2aH with FcγRIIa H was 84.6 % of GpH7-A5/GpH7-B3/GpL16-k0 (=100). Besides, in the test with FcγRIIb, the He/Con_2b was 204 % of GpH7-A5/GpH7-B3/GpL16-k0 (=100).

B6: GpH7-A5/GpH7-B3 variant P238_16H/GpL16-k0 (antibody, human IgG1, kappa)
heavy 1: not shown
heavy 2: not shown
light: DIVMTQSPLSLPVTPGEPASISCQASESLVHSNRNTYLHWYLQKPGQSPQLLIYKVSNRFSGVPDRFSGSGSGTDFTLKISRVEAEDVGVYYCSQNTHVPPTFGQGTKVEIERTVAAPSVFIFPPSDEQLKSGTASVVCLLNNFYPREAKVQWKVDNALQSGNSQESVTEQDSKDSTYSLSSTLTLSKADYEKHKVYACEVTHQGLSSPVTKSFNRGEC
notes: as for B1
As to B6, in the test with FcγRIIa H, the He/Con_2aH was 45.9 % of GpH7-A5/GpH7-B3/GpL16-k0 (=100). The He/Con_2b with FcγRIIb was 115 % of GpH7-A5/GpH7-B3/GpL16-k0 (=100).

B7: GpH7-A5/GpH7-B3 variant P238_10E/GpL16-k0 (antibody, human IgG1, kappa)
heavy 1: not shown
heavy 2: not shown
light: DIVMTQSPLSLPVTPGEPASISCQASESLVHSNRNTYLHWYLQKPGQSPQLLIYKVSNRFSGVPDRFSGSGSGTDFTLKISRVEAEDVGVYYCSQNTHVPPTFGQGTKVEIERTVAAPSVFIFPPSDEQLKSGTASVVCLLNNFYPREAKVQWKVDNALQSGNSQESVTEQDSKDSTYSLSSTLTLSKADYEKHKVYACEVTHQGLSSPVTKSFNRGEC
notes: as for B1
Take B7: the He/Con_2aH in the test with FcγRIIa H is 77.1 % of GpH7-A5/GpH7-B3/GpL16-k0 (=100). For the same molecule, the He/Con_2b with FcγRIIb was 232 % of GpH7-A5/GpH7-B3/GpL16-k0 (=100).

B8: GpH7-A5/GpH7-B3 variant P238_01G/GpL16-k0 (antibody, human IgG1, kappa)
heavy 1: not shown
heavy 2: not shown
light: DIVMTQSPLSLPVTPGEPASISCQASESLVHSNRNTYLHWYLQKPGQSPQLLIYKVSNRFSGVPDRFSGSGSGTDFTLKISRVEAEDVGVYYCSQNTHVPPTFGQGTKVEIERTVAAPSVFIFPPSDEQLKSGTASVVCLLNNFYPREAKVQWKVDNALQSGNSQESVTEQDSKDSTYSLSSTLTLSKADYEKHKVYACEVTHQGLSSPVTKSFNRGEC
notes: as for B1
With B8, in the test with FcγRIIa H, the He/Con_2aH was 37.3 % of GpH7-A5/GpH7-B3/GpL16-k0 (=100). For the same molecule, in the test with FcγRIIb, the He/Con_2b is 56 % of GpH7-A5/GpH7-B3/GpL16-k0 (=100).

The values are drawn from patent US20180155451A1 (published 2018).
